From paper PMC4235346 come the findings set out here.

One may read the Kd as a measure of binding affinity in units of concentration. Read a high Kd as lower affinity.

What all share (assay): fluorescence anisotropy
Holding throughout (details): 10 nM labelled DNA, 10 mM HEPES pH 7.0, 60 mM NaCl, 240 mM KCl, 25 C, anaerobic, 5 mM EDTA for apo or 1.2x (InrS) / 2.2x (ZiaR) metal …
A general note: Fluorescence polarisation rises when a labelled molecule tumbles more slowly, as on binding a larger partner.

The test system of data set [1] is ZiaR (Synechocystis PCC 6803).
The subject of data set [2] is InrS E98A (Synechocystis PCC 6803).
Data set [3] deals with InrS E95A (Synechocystis PCC 6803).
The subject of data set [4] is InrS (Synechocystis PCC 6803).

As to zia operator-promoter (zia o/p), the Kd in data set [1] (Zn(II), 2.2 molar excess, K1 (printed as >>)) was > 10 µM; in data set [1] (Zn(II), 2.2 molar excess, K2 (printed as >>)) it was > 10 µM; in data set [1] (apo, 5 mM EDTA, K1 (first dimer)) it was 0.022 µM; in data set [1] (apo, 5 mM EDTA, K2 (second dimer)), 0.53 µM.

With “TCATCAATATCCCCCCTGGGGGCATAGAATAGA (double strand) [nrsDProFA (nrsD operator-promoter)]”, the Kd in data set [2] (Ni(II), 1.2 molar excess) turned out to be 1.3 µM; in data set [2] (apo, 5 mM EDTA) it was 0.021 µM; in data set [3] (Ni(II), 1.2 molar excess), 1.4 µM; in data set [3] (apo, 5 mM EDTA), 0.022 µM; in data set [4] (Cu(I), 1.2 molar excess), 3.1 µM; in data set [4] (Cu(II), 1.2 molar excess) it was 3.6 µM. Besides, the Kd in data set [4] (Ni(II), 1.2 molar excess) came out at 2.3 µM; in data set [4] (Zn(II), 1.2 molar excess), 0.98 µM; in data set [4] (apo, 5 mM EDTA) it was 0.0094 µM.
